Test system: NCI-H226 cells
Test: Lung cancer NCI-H226 model
Format: in vivo, BALB/c Nude mouse
Conditions: tail vein, twice a week x5, day 28 post-administration
Method: NCI-H226 cells were cultured in a RPMI-1640 medium containing 10% fetal bovine serum at 37°C in a 5% CO2 atmosphere. On the day of inoculation, NCI-H226 cells in the exponential growth phase were collected. Tumor cells were first resuspended in a mixture of PBS and Matrigel (1:1) and then subcutaneously inoculated. Each BALB/c Nude mouse was subcutaneously inoculated with 5 × 10^6 NCI-H226 tumor cells. When the average tumor volume in each group of mice reached 150 mm^3, the mice were divided into groups for dosing. 55 mice were divided into 11 groups, after which dosing began. The dosing schedule was twice a week for a total of five administrations via tail vein injection at doses of 1 mg/kg body weight or 5 mg/kg body weight. After dosing began, body weight and tumor volume were measured twice weekly. Tumor volume was calculated using the formula of: Tumor Volume (mm^3) = 0.5 × Tumor long diameter × Tumor short diameter^2. Observations concluded on day 28 post-administration, followed by the euthanasia of all mice. Data analysis was performed using the t-test.

B1: BAY-949343: ADC developed by Bayer: anti-MSLN monoclonal antibody MF-T (anetumab) conjugated to maytansinoid DM4 via SPDB linker (conjugate, chains of the INN, looked up)
VH: QVELVQSGAEVKKPGESLKISCKGSGYSFTSYWIGWVRQAPGKGLEWMGIIDPGDSRTRYSPSFQGQVTISADKSISTAYLQWSSLKASDTAMYYCARGQLYGGTYMDGWGQGTLVTVSS
VL: DIALTQPASVSGSPGQSITISCTGTSSDIGGYNSVSWYQQHPGKAPKLMIYGVNNRPSGVSNRFSGSKSGNTASLTISGLQAEDEADYYCSSYDIESATPVFGGGTKLTVL
modifications: DM4 via SPDB linker (ravtansine)
1 mg/kg
  average tumor volume: 497 mm^3
  tumor growth inhibition rate (TGI, %): 68%
5 mg/kg
  average tumor volume: 253 mm^3
  tumor growth inhibition rate (TGI, %): 84%

Reference: patent EP4566632A1, “MSLN ANTIBODY-DRUG CONJUGATE” (priority 2022, dated 2024)
